Data taken from US20220177583A1.

Experiments:
[1] = target: human CLDN6 fused to GFP, expressed on engineered HEK293T cells (human) (UniProt P56747); assay: FACS, 293T clone with human CLDN6, 1.5 ug Ab
[2] = target: human CLDN6 fused to GFP, expressed on engineered HEK293T cells (human) (UniProt P56747); assay: FACS, 293T clone with human CLDN6, 0.3 ug Ab

Binder | FACS signal [1] | FACS signal [2]
AB1-Chim (antibody, V domains shown) VH: QVQLQQSAAELARPGASVKMSCKASGYTFTTYTMHWVKQRPGQGLEWIGFINPSSGYTDYNQKFKDRTTLTADKSSSTVYMQLSSLTSEDSAVYYCANGDYYVAYWGQGTLVTVSA VL: QIVLTQSPAIMSASLGERVTMTCTASSSVSSTYFHWYQQKPGSSPKLWIYSTSNLASGVPRRFSGSASGTSYSLTISSMEAEDAATYYCHQYHRSPLTFGAGTKLELK | 364000 | 312000
AB3-2 (antibody, V domains shown) VH: EVQLLESGGGLVQPGGSMRLSCAASGFTFSNYWMNWVRQAPGKGLEWVAQIRLKSDNYATHYADSVKGRFTISRDDSKNTVYLQMNSLRAEDTGVYYCNDGPPSGCWGQGTLLTVSS VL: DIQMTQSPSSLSASVGDRVTITCRISENIYSYLAWYQQKPGKAPKLLIYNAKILVEGVPSRFSGSGSGTDFTLTISSLQPEDFATYYCQHHYTVPWTFGQGTKLEIK | 396000 | 309000
AB3-4 (antibody, V domains shown) VH: EVQLLESGGGLVQPGGSMRLSCAASGFTFSNYWMNWVRQAPGKGLEWVAQIRLKSDNYATHYADSVKGRFTISRDDSKNTVYLQMNSLRAEDTGVYYCNDGPPSGYWGQGTLLTVSS VL: DIQMTQSPSSLSASVGDRVTITCRISENIYSYLAWYQQKPGKAPKLLIYNAKILVEGVPSRFSGSGSGTDFTLTISSLQPEDFATYYCQHHYTVPWTFGQGTKLEIK | 55800 | 11600
AB3-5 (antibody, V domains shown) VH: EVQLLESGGGLVQPGGSMRLSCAASGFTFSNYWMNWVRQAPGKGLEWVAQIRLKSDNYATHYADSVKGRFTISRDDSKNTVYLQMNSLRAEDTGVYYCNDGPPSGYWGQGTLLTVSS VL: DIQMTQSPSSLSASVGDRVTITCRISENIYSYLAWYQQKPGKAPKLLVYNAKILVEGVPSRFSGSGSGTDFTLTISSLQPEDFGTYYCQHHYTVPWTFGQGTKLEIK | 48600 | 13300
AB3-3 (antibody, V domains shown) VH: EVQLLESGGGLVQPGGSMRLSCAASGFTFSNYWMNWVRQAPGKGLEWVAQIRLKSDNYATHYADSVKGRFTISRDDSKNTVYLQMNSLRAEDTGVYYCNDGPPSGCWGQGTLLTVSS VL: DIQMTQSPSSLSASVGDRVTITCRISENIYSYLAWYQQKPGKAPKLLVYNAKILVEGVPSRFSGSGSGTDFTLTISSLQPEDFGTYYCQHHYTVPWTFGQGTKLEIK | 340000 | 251000
AB1-3 (antibody, V domains shown) VH: QVQLVQSGAEVKKPGASVKVSCKASGYTFTTYTMHWVRQAPGQGLEWMGFINPSSGYTDYAQKFQGRVTMTADTSTSTVYMELSSLRSEDTAVYYCANGDYYVAYWGQGTLVTVSS VL: DIQMTQSPSSLSASVGDRVTITCTASSSVSSTYFHWYQQKPGKAPKLLIYSTSNLASGVPSRFSGSGSGTDYTLTISSLQPEDFATYYCHQYHRSPLTFGQGTKLEIK | 142000 | 142000
AB1-5 (antibody, V domains shown) VH: QVQLVQSGAEVKKPGASVKVSCKASGYTFTTYTMHWVRQAPGQGLEWMGFINPSSGYTDYAQKFQGRVTMTADTSTSTVYMELSSLRSEDTAVYYCANGDYYVAYWGQGTLVTVSS VL: DIQLTQSPSSLSASVGDRVTMTCTASSSVSSTYFHWYQQKPGKAPKLWIYSTSNLASGVPSRFSGSGSGTDYTLTISSMQPEDAATYYCHQYHRSPLTFGQGTKLEIK | 213000 | 138000
AB1-8 (antibody, V domains shown) VH: QVQLVQSGAEVKKPGASVKMSCKASGYTFTTYTMHWVRQAPGQGLEWIGFINPSSGYTDYAQKFQGRVTLTADTSTSTVYMELSSLRSEDTAVYYCANGDYYVAYWGQGTLVTVSS VL: DIQLTQSPSSLSASVGDRVTMTCTASSSVSSTYFHWYQQKPGKAPKLWIYSTSNLASGVPSRFSGSGSGTDYTLTISSMQPEDAATYYCHQYHRSPLTFGQGTKLEIK | 210000 | 98800
AB1-4 (antibody, V domains shown) VH: QVQLVQSGAEVKKPGASVKVSCKASGYTFTTYTMHWVRQAPGQGLEWMGFINPSSGYTDYAQKFQGRVTMTADTSTSTVYMELSSLRSEDTAVYYCANGDYYVAYWGQGTLVTVSS VL: DIQLTQSPSSLSASVGDRVTMTCTASSSVSSTYFHWYQQKPGKAPKLLIYSTSNLASGVPSRFSGSGSGTDYTLTISSMQPEDAATYYCHQYHRSPLTFGQGTKLEIK | 197000 | 102000
AB1-6 (antibody, V domains shown) VH: QVQLVQSGAEVKKPGASVKMSCKASGYTFTTYTMHWVRQAPGQGLEWIGFINPSSGYTDYAQKFQGRVTLTADTSTSTVYMELSSLRSEDTAVYYCANGDYYVAYWGQGTLVTVSS VL: DIQMTQSPSSLSASVGDRVTITCTASSSVSSTYFHWYQQKPGKAPKLLIYSTSNLASGVPSRFSGSGSGTDYTLTISSLQPEDFATYYCHQYHRSPLTFGQGTKLEIK | 227000 | 120000
AB1-7 (antibody, V domains shown) VH: QVQLVQSGAEVKKPGASVKMSCKASGYTFTTYTMHWVRQAPGQGLEWIGFINPSSGYTDYAQKFQGRVTLTADTSTSTVYMELSSLRSEDTAVYYCANGDYYVAYWGQGTLVTVSS VL: DIQLTQSPSSLSASVGDRVTMTCTASSSVSSTYFHWYQQKPGKAPKLLIYSTSNLASGVPSRFSGSGSGTDYTLTISSMQPEDAATYYCHQYHRSPLTFGQGTKLEIK | 207000 | 79200
AB1-11 (antibody, V domains shown) VH: QVQLVQSGAEVKKPGASVKMSCKASGYTFTTYTMHWVRQAPGQGLEWIGFINPSSGYTDYAQKFQGRVTLTADKSTSTVYMELSSLRSEDTAVYYCANGDYYVAYWGQGTLVTVSS VL: DIQLTQSPSSLSASVGDRVTMTCTASSSVSSTYFHWYQQKPGKAPKLWIYSTSNLASGVPSRFSGSGSGTDYTLTISSMQPEDAATYYCHQYHRSPLTFGQGTKLEIK | 113000 | 64900
AB3-chim (antibody, V domains shown) VH: EVKLEESGGGLVQPGGSMKLSCVASGFTFSNYWMNWVRQSPEKGLEWVAQIRLKSDNYATHYAESVKGRFTISRDDSKRSVYLQMNNLRAEDTGTYYCNDGPPSGCWGQGTTLIVSS VL: DIQMTQSPASLSASVGETVTITCRISENIYSYLAWYQQKQGKSPQLLVYNAKILVEGVPSRFSGSGSGTQFSLKINSLQPEDFGNYYCQHHYTVPWTFGGGTKLEIK | 459000 | 267000
AB4-3 (antibody, V domains shown) VH: QVQLVQSGAEVKKPGASVKVSCKASGYTFTSYTMHWVRQAPGQGLEWMGYINPSSTYTHYAQKFQGRVTMTADTSTSTVYMELSSLRSEDTAVYYCSRGELGGFAYWGQGTLVTVSS VL: DVVMTQSPLSLPVTLGQPASISCRSSQSLVHSDGNTYLNWYQQRPGQSPRLLIYKVSNRFSGVPDRFSGSGSGTDFTLKISRVEAEDVGVYYCSQSTHVPYTFGQGTKLEIK | 47800 | 14300
AB4-8 (antibody, V domains shown) VH: QVQLVQSGAEVKKPGASVKVSCKASGYTFTSYTMHWVRQAPGQGLEWMGYINPSSTYTHYIKKFKDRVTMTADTSTSTVYMELSSLRSEDTAVYYCSRGELGGFAYWGQGTLVTVSS VL: DVVMTQSPLSLPVTLGQPASISCRSSQSLVHSDGNTYLNWYQQRPGQSPRLLIYKVSNRFSGVPDRFSGSGSGTDFTLKISRVEAEDVGVYYCSQSTHVPYTFGQGTKLEIK | 77600 | 49300
AB4-6 (antibody, V domains shown) VH: QVQLVQSGAEVKKPGASVKMSCKASGYTFTSYTMHWIRQAPGQGLEWIGYINPSSTYTHYAQKFQGRATLTADKSTSTAYMELSSLRSEDTAVYYCSRGELGGFAYWGQGTLVTVSS VL: DVVMTQSPLSLPVTLGQPASISCRSSQSLVHSDGNTYLNWYQQRPGQSPRLLIYKVSNRFSGVPDRFSGSGSGTDFTLKISRVEAEDVGVYYCSQSTHVPYTFGQGTKLEIK | 29200 | 10800
AB4-5 (antibody, V domains shown) VH: QVQLVQSGAEVKKPGASVKMSCKASGYTFTSYTMHWIRQAPGQGQEWIGYINPSSTYTHYAQKFQGRATLTADTSTSTAYMELSSLRSEDTAVYYCSRGELGGFAYWGQGTLVTVSS VL: DVVMTQSPLSLPVTLGQPASISCRSSQSLVHSDGNTYLNWYQQRPGQSPRLLIYKVSNRFSGVPDRFSGSGSGTDFTLKISRVEAEDVGVYYCSQSTHVPYTFGQGTKLEIK | 43400 | 16800
AB4-4 (antibody, V domains shown) VH: QVQLVQSGAEVKKPGASVKMSCKASGYTFTSYTMHWIRQAPGQGLEWIGYINPSSTYTHYAQKFQGRATLTADTSTSTAYMELSSLRSEDTAVYYCSRGELGGFAYWGQGTLVTVSS VL: DVVMTQSPLSLPVTLGQPASISCRSSQSLVHSDGNTYLNWYQQRPGQSPRLLIYKVSNRFSGVPDRFSGSGSGTDFTLKISRVEAEDVGVYYCSQSTHVPYTFGQGTKLEIK | 49000 | 14100
AB4-7 (antibody, V domains shown) VH: QVQLVQSGAEVKKPGASVKMSCKASGYTFTSYTMHWIRQAPGQGQEWIGYINPSSTYTHYAQKFQGRATLTADKSTSTAYMELSSLRSEDTAVYYCSRGELGGFAYWGQGTLVTVSS VL: DVVMTQSPLSLPVTLGQPASISCRSSQSLVHSDGNTYLNWYQQRPGQSPRLLIYKVSNRFSGVPDRFSGSGSGTDFTLKISRVEAEDVGVYYCSQSTHVPYTFGQGTKLEIK | 33300 | 19200
AB4-9 (antibody, V domains shown) VH: QVQLVQSGAEVKKPGASVKMSCKASGYTFTSYTMHWIRQAPGQGLEWIGYINPSSTYTHYIKKFKDRATLTADTSTSTAYMELSSLRSEDTAVYYCSRGELGGFAYWGQGTLVTVSS VL: DVVMTQSPLSLPVTLGQPASISCRSSQSLVHSDGNTYLNWYQQRPGQSPRLLIYKVSNRFSGVPDRFSGSGSGTDFTLKISRVEAEDVGVYYCSQSTHVPYTFGQGTKLEIK | 56900 | 37200
